Measurements published in US20230265516A1 (UNIVERSITY OF ARIZONA ARIZONA BOARD OF REGENTS, published 2023).

Target: T1, nicotinamide phosphoribosyltransferase (NAMPT), secreted form (Homo sapiens (Human), UniProt P43490 1-491)
T1 construct: also called PBEF; visfatin
Assay: SPR (format not described)

T1 sequence (P43490 whole entry): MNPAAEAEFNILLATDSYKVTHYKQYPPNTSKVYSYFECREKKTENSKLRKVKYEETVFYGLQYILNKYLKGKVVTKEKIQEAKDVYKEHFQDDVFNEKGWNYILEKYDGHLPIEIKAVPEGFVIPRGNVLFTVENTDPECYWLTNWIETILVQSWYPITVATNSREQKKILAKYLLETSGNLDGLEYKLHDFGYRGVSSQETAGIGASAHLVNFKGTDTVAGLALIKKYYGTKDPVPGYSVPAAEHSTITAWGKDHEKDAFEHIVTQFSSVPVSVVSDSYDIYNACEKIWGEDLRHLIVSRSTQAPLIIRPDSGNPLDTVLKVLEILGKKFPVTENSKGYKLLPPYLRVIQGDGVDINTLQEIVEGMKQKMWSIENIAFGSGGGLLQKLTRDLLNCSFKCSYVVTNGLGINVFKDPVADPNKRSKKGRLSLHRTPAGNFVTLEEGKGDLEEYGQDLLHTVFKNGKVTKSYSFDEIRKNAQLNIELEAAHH

B1: humanized anti-NAMPT monoclonal antibody ALT-100 (antibody, V domains shown)
VH: QVQLVQSGAEVTKPGASVKVSCKASGYTFTSYWMQWVRQAPGQGLEWVGEIEPSNSYTNYNQKFRGRVTLTRDTSTTTVYMELSSLRSEDTAVYYCARGGYWGQGTTVTVSS
VL: DIVMTQSPLSLPVTPGEPASISCRSSKSLLHSQGITYLYWYLQKPGQSPQLLIYQLSNRASGVPDRFSGSGSGTDFTLKISRVEAEDVGVYYCVQNLELPYTFGGGTKLEIK
notes: the in vivo control was an IgG1 antibody; also called ALT-100 mAb; Ab3
  Kd: 4.5 nM
